Laboratory results published in article PMC5334639, “Nucleophosmin Interacts with PIN2/TERF1-interacting Telomerase Inhibitor 1 (PinX1) and Attenuates the PinX1 Inhibition on Telomerase Activity” (Scientific Reports, 2017).
Each block holds one binder with its values, some of them ahead of it.

Assays:
[1] = molecular target: T1, nucleophosmin (NPM), purified wild type (UniProt P06748 1-294); experiment: pull-down; purified NPM (2 mg) immobilised on a 1 ml HiTrap NHS-activated column; 1 mg PinX1 truncation in PBS, 30 min at room temperature; washed with PBS, eluted with PBS with 1.5 M NaCl; SDS-PAGE; conditions: both partners purified
T1 construct: nucleophosmin, wild type, cloned into pRSETA-HisSumo; HisSumo tag removed by Sumo protease; Truncations end at aa294; also called wild-type NPM; purified NPM; source: E. coli BL21(DE3)-pLysS, purified (HisTrap HP, gel filtration)

[2] = molecular target: T2, PIN2/TERF1-interacting telomerase inhibitor 1 (PinX1), purified wild type (UniProt Q96BK5 1-328); experiment: pull-down; purified PinX1 (3 mg) immobilised on a 1 ml HiTrap NHS-activated column; 1 mg NPM or NPM variant in PBS, 30 min at room temperature; washed with PBS, eluted with PBS with 1.5 M NaCl; SDS-PAGE; conditions: both partners purified
T2 construct: PinX1, wild type, cloned into pGEX-6p-2; GST removed by PreScission protease; PinX1-C ends at aa328; also called purified PinX1; source: E. coli BL21(DE3)-pLysS, purified (Glutathione Sepharose, gel filtration)
T2 sequence (looked up): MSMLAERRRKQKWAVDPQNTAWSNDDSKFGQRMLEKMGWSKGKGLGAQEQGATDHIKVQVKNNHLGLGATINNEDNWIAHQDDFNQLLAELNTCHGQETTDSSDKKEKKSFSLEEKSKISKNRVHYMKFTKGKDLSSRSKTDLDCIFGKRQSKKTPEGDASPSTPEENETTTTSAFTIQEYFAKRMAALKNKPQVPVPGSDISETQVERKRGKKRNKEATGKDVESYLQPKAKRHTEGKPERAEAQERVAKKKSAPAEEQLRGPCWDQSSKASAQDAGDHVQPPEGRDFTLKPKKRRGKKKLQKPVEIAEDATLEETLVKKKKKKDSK

binding result [1]: binds
B1: PinX1-C (aa254–328), purified (domain or fragment, UniProt Q96BK5 254-328, looked up)
chain: SAPAEEQLRGPCWDQSSKASAQDAGDHVQPPEGRDFTLKPKKRRGKKKLQKPVEIAEDATLEETLVKKKKKKDSK
notes: PinX1 residues 254-328; source: E. coli BL21(DE3)-pLysS, purified (Glutathione Sepharose, gel filtration)

binding result [2]: binds
B2: NPM 1–123 (domain or fragment, UniProt P06748 1-123, looked up)
chain: MEDSMDMDMSPLRPQNYLFGCELKADKDYHFKVDNDENEHQLSLRTVSLGAGAKDELHIVEAEAMNYEGSPIKVTLATLKMSVQPTVSLGGFEITPPVVLRLKCGSGPVHISGQHLVAVEEDA
notes: source: E. coli BL21(DE3)-pLysS, purified (HisTrap HP, gel filtration)
